In patent US20260209362A1 (VIB VZW, published 2026):

B1: anti-IL-12Rβ2 VHH clone 3CRHM14 (VHH, not shown: small tags and cut ends)
VHH: QVQLQESGGGLVQAGGSLRLSCAASGRTFSNYAMAWFRQAPGTEREFVAGLSGSGGDTEFYDDSVKGRFAISRDSAKNTVWLQMNSLKPEDTAVYYCAAATHVVVHYGLVRRRGTYDYWGQGTQVTVSS
notes: tested as periplasmic extract
B2: anti-IL-12Rβ2 VHH clone 3CAHM11 (VHH, not shown: small tags and cut ends)
VHH: QVQLQESGGGLVQAGGSLRLSCAASGRTFNNYAMAWFRQAPGKEREFIAAITRSDTTLYIDSVKGRFTISRDNAKNTVALQMNSLKPEDTAVYYCAAGMPYSYSDYPRDSKYDYWGRGTQVTVSS
notes: tested as periplasmic extract
B3: anti-IL-12Rβ2 VHH clone 3CRHM73 (VHH, not shown: small tags and cut ends)
VHH: QVQLQESGGGLVQAGGSLSLSCAASGSAFRLNFMGWYRQAPGKQRELVAAINSGGTEIYHDSVKGRFTISRDNADSTVWLQMNSLKPDDTAVYYCAADRGISWSKLAGGMDYWGKGTQVTVSS
notes: tested as periplasmic extract; also called 21060
B4: anti-IL-12Rβ2 VHH clone 3CRHM99 (VHH, not shown: small tags and cut ends)
VHH: QVQLQESGGGLVQPGGSLRLSCAASGISSSRLHVGWFRQSPGKEREFVAAISLSGGTQAYTDSVKGRFTISGDNVKNTAYLQMNSLRPEDTAVYYCAARERFIWTWSDLTYDYWGQGTQVTVSS
notes: tested as periplasmic extract; also called 21062

The binders below were run against T1, human IL-12Rβ2 expressed on cells (human, UniProt Q99665 24-862) (assay: flow cytometry, P.E. VHH on HEK293T cells transiently expressing hIL-12RB2).
T1 construct: HEK293T cells transiently transfected with a human IL-12Rβ2 plasmid (Genscript OHu21785); also called hIL-12RB2
T1 sequence: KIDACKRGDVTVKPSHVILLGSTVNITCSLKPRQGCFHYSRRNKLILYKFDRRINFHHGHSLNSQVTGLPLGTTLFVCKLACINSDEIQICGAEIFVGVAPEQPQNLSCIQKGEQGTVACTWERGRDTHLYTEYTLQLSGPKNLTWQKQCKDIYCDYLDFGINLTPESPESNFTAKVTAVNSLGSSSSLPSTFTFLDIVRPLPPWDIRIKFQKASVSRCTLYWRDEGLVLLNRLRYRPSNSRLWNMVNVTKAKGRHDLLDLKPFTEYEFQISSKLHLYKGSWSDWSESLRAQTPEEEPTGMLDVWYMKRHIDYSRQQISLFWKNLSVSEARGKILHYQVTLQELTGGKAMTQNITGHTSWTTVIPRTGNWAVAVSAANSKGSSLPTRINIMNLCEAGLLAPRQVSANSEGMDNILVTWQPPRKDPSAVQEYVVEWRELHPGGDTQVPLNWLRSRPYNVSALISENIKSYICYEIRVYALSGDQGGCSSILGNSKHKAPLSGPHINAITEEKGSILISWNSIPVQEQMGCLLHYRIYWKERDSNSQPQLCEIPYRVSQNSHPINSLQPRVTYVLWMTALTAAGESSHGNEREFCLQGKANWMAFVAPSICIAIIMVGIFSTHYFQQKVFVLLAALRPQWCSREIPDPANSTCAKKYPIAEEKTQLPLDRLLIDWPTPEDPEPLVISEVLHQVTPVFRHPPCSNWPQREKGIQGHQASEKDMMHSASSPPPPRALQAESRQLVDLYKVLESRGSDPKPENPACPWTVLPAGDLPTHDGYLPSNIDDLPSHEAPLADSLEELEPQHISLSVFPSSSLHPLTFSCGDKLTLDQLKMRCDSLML

In order of falling dMFI:
1. B2  684
2. B1  589
3. B4  458
4. B3  297

Each binder was assayed against T2, biotinylated recombinant human IL-12Rβ2 (produced in-house) (human, UniProt Q99665 24-622, random biotinylated) (assay: BLI (Octet), P.E. VHH on immobilised biotinylated hIL-12RB2, 1:1 model).
T2 construct: also called hIL-12RB2; hIL12RB2
T2 sequence: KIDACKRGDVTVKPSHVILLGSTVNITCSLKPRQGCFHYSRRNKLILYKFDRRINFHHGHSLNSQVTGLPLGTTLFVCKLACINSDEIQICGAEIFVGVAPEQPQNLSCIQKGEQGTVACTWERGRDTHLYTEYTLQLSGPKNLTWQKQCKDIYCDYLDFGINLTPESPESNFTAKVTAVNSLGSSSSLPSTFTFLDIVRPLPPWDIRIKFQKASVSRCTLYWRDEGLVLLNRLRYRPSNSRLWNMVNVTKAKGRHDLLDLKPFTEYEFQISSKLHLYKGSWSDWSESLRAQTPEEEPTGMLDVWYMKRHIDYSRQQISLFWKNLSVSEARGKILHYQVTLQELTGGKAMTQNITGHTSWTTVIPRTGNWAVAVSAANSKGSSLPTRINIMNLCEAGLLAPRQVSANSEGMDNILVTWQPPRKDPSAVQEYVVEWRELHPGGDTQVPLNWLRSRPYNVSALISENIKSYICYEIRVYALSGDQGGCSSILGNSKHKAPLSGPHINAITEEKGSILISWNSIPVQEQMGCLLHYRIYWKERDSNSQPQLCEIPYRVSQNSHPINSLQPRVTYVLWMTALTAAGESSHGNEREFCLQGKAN

In order of falling koff:
1. B4  0.00634 s⁻¹
2. B3  0.00605 s⁻¹
3. B1  0.00532 s⁻¹
4. B2  0.00519 s⁻¹

What follows are binders tested against T3, mouse IL-12Rβ2 expressed on cells (mouse, UniProt P97378 24-874) (assay: flow cytometry, P.E. VHH on HEK293T cells stably expressing mIL-12RB2).
T3 construct: HEK293T cells, stably transduced (cDNA NM_008354); also called mIL-12RB2
T3 sequence: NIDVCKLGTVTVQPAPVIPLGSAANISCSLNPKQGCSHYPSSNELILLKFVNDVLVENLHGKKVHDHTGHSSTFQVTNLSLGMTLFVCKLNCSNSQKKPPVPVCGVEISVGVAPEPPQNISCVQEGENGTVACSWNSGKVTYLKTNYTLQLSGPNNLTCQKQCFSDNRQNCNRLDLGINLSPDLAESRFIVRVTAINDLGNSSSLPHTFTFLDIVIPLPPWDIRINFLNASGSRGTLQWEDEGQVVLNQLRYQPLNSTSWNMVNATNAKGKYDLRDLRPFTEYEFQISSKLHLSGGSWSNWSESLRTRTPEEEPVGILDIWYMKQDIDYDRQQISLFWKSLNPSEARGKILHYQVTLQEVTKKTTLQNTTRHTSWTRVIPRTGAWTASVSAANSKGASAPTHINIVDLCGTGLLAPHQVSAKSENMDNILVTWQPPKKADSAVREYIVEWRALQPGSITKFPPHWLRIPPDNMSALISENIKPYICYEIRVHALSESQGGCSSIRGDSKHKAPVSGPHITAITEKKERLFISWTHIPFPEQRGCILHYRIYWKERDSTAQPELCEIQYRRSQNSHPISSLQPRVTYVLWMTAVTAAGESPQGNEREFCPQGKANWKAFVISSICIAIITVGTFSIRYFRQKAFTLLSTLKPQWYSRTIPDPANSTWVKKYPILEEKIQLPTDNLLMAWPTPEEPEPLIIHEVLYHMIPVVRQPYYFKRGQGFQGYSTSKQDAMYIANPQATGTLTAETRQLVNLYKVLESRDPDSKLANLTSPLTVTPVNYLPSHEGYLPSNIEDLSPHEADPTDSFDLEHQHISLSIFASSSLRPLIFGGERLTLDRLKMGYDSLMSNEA

In order of falling “% cells bound” value:
1. B4  57.3%
2. B2  56.9%
3. B3  27.3%
4. B1  26.2%

In order of rising dMFI:
1. B1  136
2. B3  150
3. B4  309
4. B2  316

These binders were tested against T2, biotinylated recombinant human IL-12Rβ2 … (assay: BLI (Octet), P.E. VHH on immobilised biotinylated hIL-12RB2).

In order of falling Response:
1. B3  1.45
2. B4  1.45
3. B2  1.4
4. B1  1.19
